The values that follow come from publication PMC2199927.

The assay deals with c-myc-tagged Sec8 (S. cerevisiae) (UniProt P32855). In words: co-IP.

B1: Sec4 (natural protein)
chain: MSGLRTVSASSGNGKSYDSIMKILLIGDSGVGKSCLLVRFVEDKFNPSFITTIGIDFKIKTVDINGKKVKLQLWDTAGQERFRTITTAYYRGAMGIILVYDVTDERTFTNIKQWFKTVNEHANDEAQLLLVGNKSDMETRVVTADQGEALAKELGIPFIESSAKNDDNVNEIFFTLAKLIQEKIDSNKLVGVGNGKEGNISINSGSGNSSKSNCC
B1: the percent of the total Sec4 associated (limit of detection) is less than 0.07%.
